Results: patent US20020176866A1
Non-standard residues stand in square brackets, D forms with d. No end group written: not given here.

How the values were obtained:
[1] = target: rat MHC class II (I-A or I-E) on splenic adherent cells (antigen presenting cells) (rat); experiment: competition with 10 µM biotin-labeled MBP (87-99) on rat splenic adherent cells, flow cytometry; competitor at 200 µM
[2] = target: rat MHC class II (I-A or I-E) on splenic adherent cells (antigen presenting cells) (rat); experiment: competition with 10 µM biotin-labeled MBP native peptide on rat splenic adherent cells, flow cytometry; competitor at 100 µM

percent inhibition of binding at 200 µM [1] [%] | percent inhibition of binding at 100 µM [2] [%] | Binder
68.4 | 40 | VVHFFKNIVTPRT [MBP (87-99), human myelin basic protein residues 87-99]
 | 25 | D[dA]NPVVHAFANIVTPRT [a83, A89, A91 peptide analog of human myelin basic protein]
67.6 |  | VV[dH]FFANIVTPRT [h88/A91, peptide analog of MBP (87-99) with D-histidine at residue 88 and alanine at residue 91]
